{"source": "patent US6642040B2", "about": "“Human cGMP-stimulated cyclic nucleotide phosphodiesterase” (The Board of Regents of the University of Washington, priority 1991, dated 2003)", "molecules": {"B1": {"name": "pHcgs6n: yeast expression plasmid with coding region of human cGS-PDE (SEQ ID NO: 45) (protein)", "chain": "MGQACGHSILCRSQQYPAARPAEPRGQQVFLKPDEPPPPPQPCADSLQDALLSLGSVIDISGLQRAVKEALSAVLPRVETVYTYLLDGESQLVCEDPPHELPQEGKVREAIISQKRLGCNGLGFSDLPGKPLARLVAPLAPDTQVLVMPLADKEAGAVAAVILVHCGQLSDNEEWSLQAVEKHTLVALRRVQVLQQRGPREAPRAVQNPPEGTAEDQKGGAAYTDRDRKILQLCGELYDLDASSLQLKVLQYLQQETRASRCCLLLVSEDNLQLSCKVIGDKVLGEEVSFPLTGCLGQVVEDKKSIQLKDLTSEDVQQLQSMLGCELQAMLCVPVISRATDQVVALACAFNKLEGDLFTDEDEHVIQHCFHYTSTVLTSTLAFQKEQKLKCECQALLQVAKNLFTHLDDVSVLLQEIITEARNLSNAEICSVFLLDQNELVAKVFDGGVVDDESYEIRIPADQGIAGHVATTGQILNIPDAYAHPLFYRGVDDSTGFRTRNILCFPIKNENQEVIGVAELVNKINGPWFSKFDEDLATAFSIYCGISIAHSLLYKKVNEAQYRSHLANEMMMYHMKVSDDEYTKLLHDGIQPVAAIDSNFASFTYTPRSLPEDDTSMAILSMLQDMNFINNYKIDCPTLARFCLMVKKGYRDPPYHNWMHAFSVSHFCYLLYKNLELTNYLEDIEIFALFISCMCHDLDHRGTNNSFQVASKSVLAALYSSEGSVMERHHFAQAIAILNTHGCNIFDHFSRKDYQRMLDLMRDIILATDLAHHLRIFKDLQKMAEVGYDRNNKQHHRLLLCLLMTSCDLSDQTKGWKTTRKIAELIYKEFFSQGDLEKAMGNRPMEMMDREKAYIPELQISFMEHIAMPIYKLLQDLFPKAAELYERVASNREHWTKVSHKFTIRGLPSNNSLDFLDEEYEVPDLDGTRAPINGCCSLDAE"}}, "key": {"[1]": {"system": "cyclic AMP and cyclic GMP hydrolysis", "experiment": "Phosphodiesterase assay of yeast cell extracts, second method of part D", "format": "biochemical, human", "conditions": "extracts of YKS45", "description": "YKS45 transformed with plasmid pHcgs6n were grown in SC-leu medium to 1-2×10^7 cells/ml. The cells were harvested by centrifugation and the cell pellets were frozen. A frozen cell pellet, typically containing 10^10 cells, was mixed with lysis buffer (25 mM Tris HCl pH 8, 5 mM EDTA, 5 mM EGTA, 1 mM o-phenathroline, 0.5 mM AEBSF, 0.01 mg/mL pepstatin, 0.01 mg/mL leupeptin, 0.01 mg/mL aprotinin, 0.1% 2-mercaptoethanol) to bring the total volume to 2.5 ml. The mixture was thawed on ice and then added to an equal volume of glass beads. The cells were disrupted by cycles of vortexing and chilling on ice, then additional lysis buffer was mixed with the disrupted cells to bring the total lysis buffer added to 5 ml. The suspension was centrifuged for 5 min. at 12,000× g. The supernatant was removed and either assayed immediately or frozen rapidly in a dry ice ethanol bath and stored at −70° C.\nPhosphodiesterase activity was assayed by mixing an aliquot of cell extract in (40 mM Tris-Cl pH 8.0, 1.mM EGTA, 0.01 mg/mL BSA) containing 5 mM MgCl2 and radioactive substrate, incubating at 30° C. for up to 30 min. and terminating the reaction with stop buffer (0.1 M ethanolamine pH 9.0, 0.5M ammonium sulfate, 10 mM EDTA, 0.05% SDS final concentration). […] The radioactive product was measured by scintillation counting."}, "yeast host strain YKS45": {"system": "yeast host strain YKS45", "experiment": "Yeast heat shock phenotype complementation, strain YKS45", "format": "cell-based, S. cerevisiae", "conditions": "YKS45, 56° C. for 10, 20, 30 and 45 minutes", "description": "The host cells used in these procedures were S. cerevisiae yeast strains 10DAB (ATCC accession No. 74049) and YKS45, both of which were pde^1- pde^2- resulting in a phenotype characterized by heat shock sensitivity, i.e., the inability of cells to survive exposure to elevated temperatures on the order of 55-56° C. In these complementation procedures, the inserted gene product was noted to conspicuously modify the heat shock phenotype.\nIn a like manner, plasmid pHcgs6n (Example VI) was transformed into yeast host strain YKS45 by lithium acetate transformation. Heat shock analysis was performed as above except that the plates were initially grown two days at 30° C. and the warmed plates were maintained at 56° C. for 10, 20, 30 and 45 minutes."}}}
{"molecule": "B1", "values": [{"measurement": "hydrolysis of cyclic AMP and cyclic GMP by cell extracts", "setting": "[1]", "value": "hydrolyzed both cyclic AMP and cyclic GMP"}, {"measurement": "heat shock phenotype of transformed yeast", "setting": "yeast host strain YKS45", "value": "resistant to thermal pulse"}]}
